Laboratory results: US20240192215A1

Experiments:
Peptide_044 (human) [1] = molecular target: T1, Peptide_044 (human); assay: peptide microarray, 5 ug/mL
T1 sequence (peptide): FSATWCGPCKMIKPF

Peptide_097 (human) [2] = molecular target: T2, Peptide_097 (human); assay: peptide microarray, 5 ug/mL
T2 sequence (peptide): FKKGQKVGEFSGANK

Peptide_096 (human) [3] = molecular target: T3, Peptide_096 (human); assay: peptide microarray, 5 ug/mL
T3 sequence (peptide): FFKKGQKVGEFSGAN

Peptide_044 (human) [4] = molecular target: T1, Peptide_044 (human); assay: peptide microarray, 0.04 ug/mL
Peptide_097 (human) [5] = molecular target: T2, Peptide_097 (human); assay: peptide microarray, 0.04 ug/mL
Peptide_096 (human) [6] = molecular target: T3, Peptide_096 (human); assay: peptide microarray, 0.04 ug/mL
TRX-N-His-M1 (human) = TRX-N-His-M1 (human) (UniProt P10599); assay: ELISA, mutant M1 coated at 2 ug/mL, antibody concentration not given, anti-mouse Fc-HRP (Example 16)
Chain of TRX-N-His-M1 (human) (P10599 whole entry): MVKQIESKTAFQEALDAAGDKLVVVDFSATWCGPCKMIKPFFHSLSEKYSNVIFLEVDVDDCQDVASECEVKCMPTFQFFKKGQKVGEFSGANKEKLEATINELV

TRX-N-His-M4 (human) = TRX-N-His-M4 (human) (UniProt P10599); assay: ELISA, mutant M4 coated at 2 ug/mL, antibody concentration not given, anti-mouse Fc-HRP (Example 16)
Chain of TRX-N-His-M4 (human) (P10599 whole entry): as above

Peptide_044 (human) [7] = molecular target: T1, Peptide_044 (human); assay: peptide microarray, 0.0016 ug/mL
Peptide_097 (human) [8] = molecular target: T2, Peptide_097 (human); assay: peptide microarray, 0.0016 ug/mL
Peptide_096 (human) [9] = molecular target: T3, Peptide_096 (human); assay: peptide microarray, 0.0016 ug/mL
Peptide_044 (human) [10] = molecular target: T1, Peptide_044 (human); assay: peptide microarray, 0.2 ug/mL
Peptide_097 (human) [11] = molecular target: T2, Peptide_097 (human); assay: peptide microarray, 0.2 ug/mL
Peptide_096 (human) [12] = molecular target: T3, Peptide_096 (human); assay: peptide microarray, 0.2 ug/mL
TRX-N-His-M2 (human) = TRX-N-His-M2 (human) (UniProt P10599); assay: ELISA, mutant M2 coated at 2 ug/mL, antibody concentration not given, anti-mouse Fc-HRP (Example 16)
Chain of TRX-N-His-M2 (human) (P10599 whole entry): as above

M7 = molecular target: T4, M7; assay: ELISA, mutant M7 coated at 2 ug/mL, antibody concentration not given, anti-mouse Fc-HRP (Example 16)
T4 sequence (single chain): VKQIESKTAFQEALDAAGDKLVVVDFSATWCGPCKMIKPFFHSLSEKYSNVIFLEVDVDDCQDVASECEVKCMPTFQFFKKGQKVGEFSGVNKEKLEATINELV

Peptide_044 (human) [13] = molecular target: T1, Peptide_044 (human); assay: peptide microarray, 1 ug/mL
Peptide_097 (human) [14] = molecular target: T2, Peptide_097 (human); assay: peptide microarray, 1 ug/mL
Peptide_096 (human) [15] = molecular target: T3, Peptide_096 (human); assay: peptide microarray, 1 ug/mL
Peptide_044 (human) [16] = molecular target: T1, Peptide_044 (human); assay: peptide microarray, head 0.08 ug (text 0.008 ug/mL)
Peptide_097 (human) [17] = molecular target: T2, Peptide_097 (human); assay: as above
Peptide_096 (human) [18] = molecular target: T3, Peptide_096 (human); assay: as above

B1: monoclonal antibody B264 (antibody, mouse IgG1, kappa, V domains shown)
VH: QVQLQQSGAELARPGASVKMSCKASGYTFTSYTMHWVKQRPGQGLEWIGYINPTSDYTNYNQKFKDKATLTADKSSSTAYMQLSSLTSEDSAVYFCASEGGFLYYFDYWGQGTTLTVSS
VL: DVLMTQTPLSLPVSLGDQASISCRSSQSIVHSNGNTYLEWYLQKPGQSPKLLIYKVSNRFSGVPDRFSGSGSGTDFTLKISRVEAEDLGVYYCFQGSHVPYTFGGGTKLEIKR
Peptide_044 (human) [1]
  signal (blank-control = 1): 3.33
Peptide_097 (human) [2]
  signal (blank-control = 1): 2.26
Peptide_096 (human) [3]
  signal (blank-control = 1): 1.9
Peptide_044 (human) [4]
  signal (blank-control = 1): 2.12
Peptide_097 (human) [5]
  signal (blank-control = 1): 1.31
Peptide_096 (human) [6]
  signal (blank-control = 1): 1.44
TRX-N-His-M1 (human)
  OD 490 nm: 0.0424
TRX-N-His-M4 (human)
  OD 490 nm: 0.181
Peptide_044 (human) [7]
  signal (blank-control = 1): 1.6
Peptide_097 (human) [8]
  signal (blank-control = 1): 0.91
Peptide_096 (human) [9]
  signal (blank-control = 1): 0.82
Peptide_044 (human) [10]
  signal (blank-control = 1): 2.3
Peptide_097 (human) [11]
  signal (blank-control = 1): 1.68
Peptide_096 (human) [12]
  signal (blank-control = 1): 1.37
TRX-N-His-M2 (human)
  OD 490 nm: 0.094
M7
  OD 490 nm: 0.761
Peptide_044 (human) [13]
  signal (blank-control = 1): 2.93
Peptide_097 (human) [14]
  signal (blank-control = 1): 2.18
Peptide_096 (human) [15]
  signal (blank-control = 1): 2.04
Peptide_044 (human) [16]
  signal (blank-control = 1): 1.87
Peptide_097 (human) [17]
  signal (blank-control = 1): 1.08
Peptide_096 (human) [18]
  signal (blank-control = 1): 0.94
